Legend:
[1] = molecular target: human CD3 (hCD3) naturally expressed on Jurkat cells (human) (UniProt P07766); assay: cell-based or functional assay
[2] = molecular target: murine Claudin 18.2 (mCLDN18.2) on stably-transfected HEK293 cells (murine) (UniProt P56857); assay: FACS on HEK293-mCLDN18.2 cells
[3] = molecular target: human CD3 (hCD3) naturally expressed on Jurkat cells (human) (UniProt P07766); assay: FACS on Jurkat cells
[4] = molecular target: human Claudin 18.2 (hCLDN18.2) on stably-transfected HEK293 cells (human) (UniProt P56856); assay: FACS on HEK293-hCLDN18.2 cells
[5] = molecular target: Cynomolgus macaques Claudin 18 (cynoCLDN18) on stably-transfected HEK293 cells (Cynomolgus macaques); assay: FACS on HEK293-cynoCLDN18 cells

Sequence of human CD3 (hCD3) naturally expressed on Jurkat cells (human) (P07766 23-207): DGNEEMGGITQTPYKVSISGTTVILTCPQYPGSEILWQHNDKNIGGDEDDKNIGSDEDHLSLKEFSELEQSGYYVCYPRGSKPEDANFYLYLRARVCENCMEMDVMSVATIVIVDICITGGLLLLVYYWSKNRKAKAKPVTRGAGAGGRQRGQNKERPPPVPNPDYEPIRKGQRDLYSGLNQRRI
Sequence of human Claudin 18.2 (hCLDN18.2) on stably-transfected HEK293 cells (human) (P56856 other isoform, or with tags, fused parts or gaps limits assumed): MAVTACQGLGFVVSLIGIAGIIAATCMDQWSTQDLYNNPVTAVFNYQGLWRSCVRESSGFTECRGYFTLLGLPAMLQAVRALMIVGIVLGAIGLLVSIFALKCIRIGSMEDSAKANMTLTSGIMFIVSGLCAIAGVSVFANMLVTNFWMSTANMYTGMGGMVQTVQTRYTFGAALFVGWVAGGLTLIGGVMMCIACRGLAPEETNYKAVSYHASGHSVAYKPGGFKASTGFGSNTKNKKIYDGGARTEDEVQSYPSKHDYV

Jurkat-NFAT luciferase reporter, Fluorescence value (Max) [1]: 0 | MFI (Max) [2]: 75 MFI | Top mean fluorescence intensity (Top MFI) [3]: 110 MFI | Top mean fluorescence intensity (Top MFI) [4]: 359 MFI | MFI (Max) [5]: 136 MFI
Substance: Negative-IgG1AA (antibody)

Source: patent US20240010748A1
